Measurements published in patent US20240391996A1.

Columns and labels:
[1] = target: recombinant human GH (Pharmaceutical and Medical Device Regulatory Science Society of Japan) (human) (UniProt P01241); test: GH-GHR binding inhibition ELISA: biotin-labeled GH (5.5 ng/mL) on captured GHR-hFc, antibody varied
[2] = target: recombinant human GH (Pharmaceutical and Medical Device Regulatory Science Society of Japan) (human) (UniProt P01241); test: cell-based or functional assay

Chain of recombinant human GH (Pharmaceutical and Medical Device Regulatory Science Society of Japan) (human) (P01241 27-217 limits assumed): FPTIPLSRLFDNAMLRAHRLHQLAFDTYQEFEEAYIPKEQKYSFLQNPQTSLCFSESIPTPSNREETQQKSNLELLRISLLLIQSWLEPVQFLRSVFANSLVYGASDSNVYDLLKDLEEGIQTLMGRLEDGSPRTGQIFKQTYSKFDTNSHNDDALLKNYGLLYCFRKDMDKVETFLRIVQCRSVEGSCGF

anti-GH mouse mAb (MAB1067, R&D Systems, Inc.) (antibody)
IC50 [1]: 0.00686 µM
GH-dependent Nb2 cell proliferation inhibitory activity (IC50) [2]: 0.0215 µM
